Source: US20190134169A1

Biological target: mouse Notch1 on CD4+ T cells (mouse) (UniProt Q01705)
Test: cell-based or functional assay

Chain of UniProt Q01705 (Q01705 19-2531): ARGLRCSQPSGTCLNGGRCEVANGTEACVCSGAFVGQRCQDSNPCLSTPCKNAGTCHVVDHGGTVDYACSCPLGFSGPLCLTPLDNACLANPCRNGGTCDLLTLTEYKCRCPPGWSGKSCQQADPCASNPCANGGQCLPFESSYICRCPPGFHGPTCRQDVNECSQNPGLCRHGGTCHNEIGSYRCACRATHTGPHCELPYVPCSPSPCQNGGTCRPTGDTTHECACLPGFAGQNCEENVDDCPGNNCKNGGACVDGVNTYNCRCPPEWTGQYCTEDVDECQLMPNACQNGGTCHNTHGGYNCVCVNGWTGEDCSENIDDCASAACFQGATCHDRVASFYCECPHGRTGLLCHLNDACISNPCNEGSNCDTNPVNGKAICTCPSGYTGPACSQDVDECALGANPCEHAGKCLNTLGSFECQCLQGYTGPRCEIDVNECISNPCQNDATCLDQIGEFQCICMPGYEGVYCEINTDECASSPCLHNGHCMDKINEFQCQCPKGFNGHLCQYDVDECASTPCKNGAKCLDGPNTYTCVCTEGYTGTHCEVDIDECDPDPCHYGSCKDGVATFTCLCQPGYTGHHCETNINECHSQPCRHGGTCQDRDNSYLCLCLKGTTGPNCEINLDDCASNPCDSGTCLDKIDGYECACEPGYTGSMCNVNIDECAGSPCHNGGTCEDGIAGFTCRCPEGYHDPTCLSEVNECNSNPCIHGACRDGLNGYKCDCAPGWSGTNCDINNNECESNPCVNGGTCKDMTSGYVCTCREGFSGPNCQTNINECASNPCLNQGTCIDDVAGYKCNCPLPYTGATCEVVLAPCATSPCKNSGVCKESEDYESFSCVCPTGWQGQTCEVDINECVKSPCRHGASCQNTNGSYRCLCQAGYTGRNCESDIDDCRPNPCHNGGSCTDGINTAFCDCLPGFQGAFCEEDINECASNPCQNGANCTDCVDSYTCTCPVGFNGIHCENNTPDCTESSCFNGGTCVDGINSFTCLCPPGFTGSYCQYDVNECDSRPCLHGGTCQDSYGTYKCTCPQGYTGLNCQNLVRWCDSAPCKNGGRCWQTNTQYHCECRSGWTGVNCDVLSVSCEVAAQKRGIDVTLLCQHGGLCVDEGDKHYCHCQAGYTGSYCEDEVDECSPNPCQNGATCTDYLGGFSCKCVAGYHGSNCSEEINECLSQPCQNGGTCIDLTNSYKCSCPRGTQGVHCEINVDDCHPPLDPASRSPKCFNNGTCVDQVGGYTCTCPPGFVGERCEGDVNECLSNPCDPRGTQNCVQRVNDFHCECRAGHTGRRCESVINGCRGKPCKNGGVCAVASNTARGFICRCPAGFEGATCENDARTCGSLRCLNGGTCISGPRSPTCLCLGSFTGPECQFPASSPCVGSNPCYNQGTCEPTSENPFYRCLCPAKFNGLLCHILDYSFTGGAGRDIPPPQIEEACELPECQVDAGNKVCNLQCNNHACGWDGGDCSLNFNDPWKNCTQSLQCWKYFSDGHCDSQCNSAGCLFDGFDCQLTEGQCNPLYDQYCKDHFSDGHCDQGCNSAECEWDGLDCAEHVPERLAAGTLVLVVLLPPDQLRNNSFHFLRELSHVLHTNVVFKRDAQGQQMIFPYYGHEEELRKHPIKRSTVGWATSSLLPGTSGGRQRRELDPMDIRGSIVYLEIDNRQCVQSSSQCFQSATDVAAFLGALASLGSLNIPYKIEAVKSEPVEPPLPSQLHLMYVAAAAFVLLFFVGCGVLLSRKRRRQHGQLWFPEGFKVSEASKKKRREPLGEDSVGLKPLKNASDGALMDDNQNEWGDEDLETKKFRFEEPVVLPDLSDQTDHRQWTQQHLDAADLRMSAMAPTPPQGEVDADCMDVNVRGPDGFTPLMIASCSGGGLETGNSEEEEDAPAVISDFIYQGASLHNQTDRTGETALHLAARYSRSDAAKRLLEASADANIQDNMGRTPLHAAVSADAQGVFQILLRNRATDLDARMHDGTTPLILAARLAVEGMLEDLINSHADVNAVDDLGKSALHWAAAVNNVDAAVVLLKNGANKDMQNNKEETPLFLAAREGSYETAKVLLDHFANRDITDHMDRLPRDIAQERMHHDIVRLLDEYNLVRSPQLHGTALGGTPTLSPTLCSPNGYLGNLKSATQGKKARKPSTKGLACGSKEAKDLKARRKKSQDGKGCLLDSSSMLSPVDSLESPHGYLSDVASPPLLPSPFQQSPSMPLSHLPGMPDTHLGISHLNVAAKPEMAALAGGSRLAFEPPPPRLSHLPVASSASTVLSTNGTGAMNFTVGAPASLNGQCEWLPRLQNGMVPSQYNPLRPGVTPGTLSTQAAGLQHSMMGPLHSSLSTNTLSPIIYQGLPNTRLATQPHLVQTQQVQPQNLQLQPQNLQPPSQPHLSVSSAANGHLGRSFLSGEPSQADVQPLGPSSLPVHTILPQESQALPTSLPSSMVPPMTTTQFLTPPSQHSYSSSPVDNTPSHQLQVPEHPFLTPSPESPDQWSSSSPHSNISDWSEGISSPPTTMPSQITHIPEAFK

With “mouse delta-like ligand 4 (DLL4) on the surface of DLL4hiDCs (from UniProt Q9JI71 27-686)” the percentage of DLL4hiDC-activated CD4+ T cells with high cleaved intracellular Notch (ICN) was 61%.
